Tests used:
Format in all cases: cell-based, human
A-SMase = assay: Acid sphingomyelinase activity in cell extracts, [14C]sphingomyelin substrate; details: for Acid SMase activity: MG-63 WT 2.7, L-3 LacZ/sham 2.3, average of two batches; for Reduction in A-SMase activity: ribozyme-transfected cells compared to sham-transfected and untransfected controls
Procedure: Confluent culture of cells were harvested, washed, and pellets lysed in buffer containing 0.1% Triton™ X-100, 25 mM Tris (pH 7.4) buffer, 5 mM EDTA, 1 mM phenylmethylsulfonylfluoride and 2 μg each of chymostatin, leupeptin, antipain, and pepstatin A. The activity levels of acid and neutral sphingomyelinase were measured in cell extracts (100 μg protein) in duplicate as described previously employing […] as the substrate.
Activities of A-SMase and N-SMase were also measured according to methods described in Chatterjee, S. and Ghosh, N. (1996) Glycobiology 6:303–311, incorporated herein by reference, with minor modifications. In brief, 5×10^6 MG63 cells were scraped from the culture plates, washed with PBS, and disrupted by repeated passage through a 25-gauge needle. Nuclei and cell debris were pelleted at 800×g for 5 min. Supernatant fluid was collected, and the protein concentration was measured using the Bio-Rad (Hercules, Calif.) protein detection kit. To measure SMase activity, 50 μg of protein was incubated for 90 min (the reaction was linear for up to 120 min) at 37° C. in buffer (200 μl final volume) containing 250 mM sodium acetate and 1 mM EDTA, pH 5.0, for A-SMase or 250 mM Tris-Cl, pH 7.4, with or without 6 mM MgCl2 for N-SMase, and 0.75 μl of [methyl-^14C]sphingomyelin (SM) (0.2 mCi/ml; 56.6 mCi/mmol). Radioactive phosphocholine produced from [^14C]SM was extracted with 800 μl of chloroform-methanol (2:1, vol/vol) and 100 μl of H2O. [^14C]phosphocholine in the aqueous phase was measured by scintillation counting.

N-SMase [1] = assay: N-SMase activity gel analysis of partially purified preparations; details: CC mutant cells compared to control cells, FIG. 2
Procedure: FIG. 2 depicts N-SMase activity in mutant and WT cells, as determined using gel analysis. Partially purified preparations of the MG-63 (WT) cell line and the mutant cell line CC were subjected to 7.5% polyacrylamide gel electrophoresis at 4° C. employing sodium lauryl sarcosine as the detergent. The gel was calibrated with pre-stained protein molecular weight standards (phosphorylase B, bovine serum albumin (BSA), and ovalbumin). Gel slices were excised and subjected to an N-SMase assay employing […] as the substrate.
N-SMase activity in mutant and WT cells (subjected to detergent extraction as described above), was determined using gel analysis. Partially purified preparations of the MG-63 (WT) cell line and the mutant cell line CC were subjected to 7.5% polyacrylamide gel electrophoresis at 4° C. employing sodium lauryl sarcosine as the detergent. The gel was calibrated with pre-stained protein molecular weight standards (phosphorylase B, bovine serum albumin (BSA), and ovalbumin; Bio-Rad). Gel slices were excised, transferred to glass tubes, and subjected to an N-SMase assay at pH 7.4 employing […] as the substrate.

N-SMase [2] = assay: Western immunoblot and densitometric analysis of N-SMase; details: mutant CC cells vs WT, FIG. 3
Procedure: (§1) FIG. 3 depicts a western immunoblot assay and densitometric analysis of N-SMase. About 10 μg of partially purified N-SMase preparations from WT (MG-63) and mutant (CC) cells were solubilized and subjected to 7.5% polyacrylamide SDS gel electrophoresis. The proteins were then transferred to PVDF membranes and subjected to a western immunoblot assay employing an N-SMase antibody or β-actin antibody (control). The immunoreactive protein bands were then subjected to densitometric scanning.
as §1, with “Western” for “FIG. 3 depicts a western”, “analysis was used to quantify the level” for “analysis”, “N-SMase in WT and CC cells.” for “N-SMase.”, “antibody.” for “antibody or β-actin antibody (control).”

[3] = tested on: ceramide production by N-SMase; assay: Ceramide level, modified diacylglycerol kinase assay; details: for Production of ceramide in response to cytokine stimulation: ribozyme-transfected (N-SMase-deficient) cells compared to sham transfected cells, TNF-α 20 ng/ml or Fas-L 1 ng/ml, 24 hours
[4] = tested on: caspase-3 and cytochrome-C release; assay: Caspase-3 and cytochrome-C release by western analysis and densitometry; details: N-SMase-deficient cells compared to control (sham-transfected) cells
Procedure: In order to determine a dose-response relationship between the concentration of TNF-α or FasL and apoptosis, western analysis was used to quantitate release of both caspase-3 (FIG. 9) and cytochrome-C (FIG. 10).
Immunoblots for the measurement of cytochrome-C and caspase-3 were carried out after incubation of cells with TNF-α (10 ng/ml) or FasL (1 ng/ml) for 48 hours. Cells were extracted with a buffer (20 mM Hepes pH 7.5, 10 mM KCl, 1.5 mM MgCl2, 5 mM EDTA, 5 mM DTT, 2 mM phenylmethylsulfonylfluoride, 1% NonidetP40, 0.5% sodium deoxycholate, 0.1% SDS, 2 μg/ml leupeptin, 2 μg/ml aprotinin, 0.5 μg/ml benzamindine, and 250 mM sucrose) on ice for 30 minutes. After centrifugation for 10 minutes at 10,000×g, the supernatant was used for western analysis with an antibody for cytochrome-C (Pharmingen, San Diego, Calif.). For assessment of caspase-3, samples were similarly processed in addition to passage through a 21-g needle prior to centrifugation. The western analysis was performed with a rabbit polyclonal IgG antibody to caspase-3 (Santa Cruz, Calif.) raises against an epitope corresponding to amino acids 1–277, representing the full-length precursor form of CPP-32 (caspase-3). For both caspase-3 and cytochrome-C, bands were quantified with densitometric analysis.

MG-63 cells = assay: Cell viability by trypan blue staining; details: ribozyme transfected cells, 24 hours, trypan blue, FIG. 8
Procedure: FIG. 8 depicts the effect of TNF-α on viability of wild type, ribozyme transfected and wild type/mock transfected cells. Cells ([…]) were seeded in 96 well sterile plastic trays. Upon confluence medium was replaced with serum free minimum essential medium and TNF-α (20 ng/ml). After incubation for 24 h at 37° C., viability of cells were determined by Trypan blue staining. The results represent ±S.D. of three experiments.
The population of viable cells was determined using trypan blue staining. Cells (10^4) were seeded in 96 well plates. Twenty-four hours later, the media was replaced with serum-free MEM, and TNF-α in various concentrations was added. After incubation for 24 hours at 37° C., the cells were trypsinized, and viable cells were counted after staining with trypan blue. Values were compared to the original cell count (10^4) and expressed as a percentage.

B1: N-SMase ribozyme: U1 snRNA-derived hammerhead antisense ribozyme targeting N-SMase mRNA, expressed from vector pNSMRz; stably transfected MG63 clones CC and C-B (nucleic acid, listed as Homo sapiens)
chain: AUACUUACCUGGCAGGGGAGAUACCAUGAUCACGAAGGUGGUUUUCCCAGGGCGAGGCUUAUCCAUUGGCCUCCGGAUGUGCUGACCCCUGCGAUUUCCCCAAAUGUGGGAAACUCGACUGCAGAAUAUGUCAUCAUAUUGCCUGAUGAGUCCGUGAGGACGAAACCUCUUCACAUGAAAAAGUGGGGCUGCGUUCGCGCUUCCCCG
In the case of B1, the “Acid SMase activity” value (A-SMase; MG-63 clone C-B (mutant)) is reported as 2.2 nmol/mg protein/hr, the “Acid SMase activity” value (A-SMase; MG-63 clone CC (mutant)) is reported as 2.1 nmol/mg protein/hr and the “Reduction in A-SMase activity” value (A-SMase) is reported as “unchanged”. For the same molecule, the “Reduction in A-SMase activity” value (A-SMase; listed as ribozyme) was “no discernable reduction”, the “Level of N-SMase activity in gel slices” value (N-SMase [1]) was “greatly reduced” and the “Level of N-SMase by western immunoblot densitometry” value (N-SMase [2]) was “greatly reduced”. For the same molecule, the “Production of ceramide in response to cytokine stimulation” value ([3]; listed as antisense ribozyme) was “substantially no change”, the “Production of ceramide in response to cytokine stimulation” value ([3]; listed as ribozyme) was “severely reduced” and the “Basal level of ceramide production” value ([3]; ribozyme-transfected CC cells, 2.63 in MG-63 control cells) was 4.59 pmole/mg protein. The “Dose-response of caspase-3 and cytochrome-C release to TNF-α and FasL” value [4] was “marked blunting of the response” and the “Decline in viable cells over a wide range of TNF-α concentrations” value (MG-63 cells) was “no significant decline”.
